Source: patent US12630600B2 (MEDIMMUNE LIMITED, priority 2022, dated 2026)
Starred links: 1 amine or outer side, 2 acyl side, 3 side chain; linkers in the order of their positions; H or OH if unused. Non-standard residues stand in square brackets, D forms with d. Groups on a side chain read outwards from the residue. Primed or numbered codes have the meaning given here. No end group written: not given here. *: point of attachment. C20 diacid = O=C(O)CCCCCCCCCCCCCCCCCCC(=O)*; C18 diacid = O=C(O)CCCCCCCCCCCCCCCCC(=O)*; γGlu = O=C(O)[C@H](CCC(=O)[*:2])N[*:1]; Stearoyl = CCCCCCCCCCCCCCCCCC(=O)*; Palmitoyl = CCCCCCCCCCCCCCCC(=O)*; αMeF = C[C@](N)(Cc1ccccc1)C(=O)O; Myristoyl = CCCCCCCCCCCCCC(=O)*; (PEG)2 = polyethylene glycol 2; PEG2′ = polyethylene glycol 2; αMeS = C[C@](N)(CO)C(=O)O; AEEA = NCCOCCOCC(=O)O; Aib = CC(C)(N)C(=O)O

What was measured:
human GLP-1 receptor = human GLP-1 receptor (human, UniProt P43220); test: cell-based or functional assay
human glucagon receptor = human glucagon receptor (human, UniProt P47871); test: cell-based or functional assay

Row | cAMP production, hGLP-1R EC50 (pM) (human GLP-1 receptor) | cAMP production, hGluc-R EC50 (pM) (human glucagon receptor) | Binder
1 | 33 | 105 | H[Aib]HGS[αMeF]TSDVSK[αMeF]LDSK([AEEA-AEEA-γGlu-C18 diacid])AARD[αMeF]IA[Aib]IANT-NH2 (N-terminus assumed; SMILES CC[C@H](C)[C@H](NC(=O)C(C)(C)NC(=O)[C@H](C)NC(=O)[C@@H](NC(=O)[C@](C)(Cc1ccccc1)NC(=O)[C@H](CC(=O)O)NC(=O)[C@H](CCCNC(=N)N)NC(=O)[C@H](C)NC(=O)[C@H](C)NC(=O)[C@H](CCCCNC(=O)COCCOCCNC(=O)COCCOCCNC(=O)CC[C@H](NC(=O)CCCCCCCCCCCCCCCCC(=O)O)C(=O)O)NC(=O)[C@H](CO)NC(=O)[C@H](CC(=O)O)NC(=O)[C@H](CC(C)C)NC(=O)[C@](C)(Cc1ccccc1)NC(=O)[C@H](CCCCN)NC(=O)[C@H](CO)NC(=O)[C@@H](NC(=O)[C@H](CC(=O)O)NC(=O)[C@H](CO)NC(=O)[C@@H](NC(=O)[C@](C)(Cc1ccccc1)NC(=O)[C@H](CO)NC(=O)CNC(=O)[C@H](Cc1c[nH]cn1)NC(=O)C(C)(C)NC(=O)[C@@H](N)Cc1c[nH]cn1)[C@@H](C)O)C(C)C)[C@@H](C)CC)C(=O)N[C@@H](C)C(=O)N[C@@H](CC(N)=O)C(=O)N[C@H](C(N)=O)[C@@H](C)O) [Peptide 16]
2 | 20.5 | 122 | H[Aib]HGS[αMeF]TSDVSK[αMeF]LDSK([AEEA-AEEA-γGlu-C18 diacid])AARD[αMeF]VQSIANT-NH2 (N-terminus assumed; SMILES CC[C@H](C)[C@H](NC(=O)[C@H](CO)NC(=O)[C@H](CCC(N)=O)NC(=O)[C@@H](NC(=O)[C@](C)(Cc1ccccc1)NC(=O)[C@H](CC(=O)O)NC(=O)[C@H](CCCNC(=N)N)NC(=O)[C@H](C)NC(=O)[C@H](C)NC(=O)[C@H](CCCCNC(=O)COCCOCCNC(=O)COCCOCCNC(=O)CC[C@H](NC(=O)CCCCCCCCCCCCCCCCC(=O)O)C(=O)O)NC(=O)[C@H](CO)NC(=O)[C@H](CC(=O)O)NC(=O)[C@H](CC(C)C)NC(=O)[C@](C)(Cc1ccccc1)NC(=O)[C@H](CCCCN)NC(=O)[C@H](CO)NC(=O)[C@@H](NC(=O)[C@H](CC(=O)O)NC(=O)[C@H](CO)NC(=O)[C@@H](NC(=O)[C@](C)(Cc1ccccc1)NC(=O)[C@H](CO)NC(=O)CNC(=O)[C@H](Cc1c[nH]cn1)NC(=O)C(C)(C)NC(=O)[C@@H](N)Cc1c[nH]cn1)[C@@H](C)O)C(C)C)C(C)C)C(=O)N[C@@H](C)C(=O)N[C@@H](CC(N)=O)C(=O)N[C@H](C(N)=O)[C@@H](C)O) [Peptide 18]
3 | 0.788 | 4.7 | H[Aib]QGS[αMeF]TSDVSKILDSK([(PEG)2-(PEG)2-γGlu-Palmitoyl])AAQD[αMeF]VQ[Aib]IINT-NH2 [Peptide 128]
4 | 93.8 | 462 | H[Aib]HGS[αMeF]TSDVSK[αMeF]LDSK([AEEA-AEEA-γGlu-γGlu-C20 diacid])AARD[αMeF]VQ[Aib]IANT-NH2 (N-terminus assumed; SMILES CC[C@H](C)[C@H](NC(=O)C(C)(C)NC(=O)[C@H](CCC(N)=O)NC(=O)[C@@H](NC(=O)[C@](C)(Cc1ccccc1)NC(=O)[C@H](CC(=O)O)NC(=O)[C@H](CCCNC(=N)N)NC(=O)[C@H](C)NC(=O)[C@H](C)NC(=O)[C@H](CCCCNC(=O)COCCOCCNC(=O)COCCOCCNC(=O)CC[C@H](NC(=O)CC[C@H](NC(=O)CCCCCCCCCCCCCCCCCCC(=O)O)C(=O)O)C(=O)O)NC(=O)[C@H](CO)NC(=O)[C@H](CC(=O)O)NC(=O)[C@H](CC(C)C)NC(=O)[C@](C)(Cc1ccccc1)NC(=O)[C@H](CCCCN)NC(=O)[C@H](CO)NC(=O)[C@@H](NC(=O)[C@H](CC(=O)O)NC(=O)[C@H](CO)NC(=O)[C@@H](NC(=O)[C@](C)(Cc1ccccc1)NC(=O)[C@H](CO)NC(=O)CNC(=O)[C@H](Cc1c[nH]cn1)NC(=O)C(C)(C)NC(=O)[C@@H](N)Cc1c[nH]cn1)[C@@H](C)O)C(C)C)C(C)C)C(=O)N[C@@H](C)C(=O)N[C@@H](CC(N)=O)C(=O)N[C@H](C(N)=O)[C@@H](C)O) [Peptide 14]
5 | 3200 | > 27100 | HSQGS[αMeF]TSDVSK[Aib]LDSK([AEEA-AEEA-γGlu-C18 diacid])AAQD[αMeF]VQ[Aib]IAN-NH2 (N-terminus assumed; SMILES CC[C@H](C)[C@H](NC(=O)C(C)(C)NC(=O)[C@H](CCC(N)=O)NC(=O)[C@@H](NC(=O)[C@](C)(Cc1ccccc1)NC(=O)[C@H](CC(=O)O)NC(=O)[C@H](CCC(N)=O)NC(=O)[C@H](C)NC(=O)[C@H](C)NC(=O)[C@H](CCCCNC(=O)COCCOCCNC(=O)COCCOCCNC(=O)CC[C@H](NC(=O)CCCCCCCCCCCCCCCCC(=O)O)C(=O)O)NC(=O)[C@H](CO)NC(=O)[C@H](CC(=O)O)NC(=O)[C@H](CC(C)C)NC(=O)C(C)(C)NC(=O)[C@H](CCCCN)NC(=O)[C@H](CO)NC(=O)[C@@H](NC(=O)[C@H](CC(=O)O)NC(=O)[C@H](CO)NC(=O)[C@@H](NC(=O)[C@](C)(Cc1ccccc1)NC(=O)[C@H](CO)NC(=O)CNC(=O)[C@H](CCC(N)=O)NC(=O)[C@H](CO)NC(=O)[C@@H](N)Cc1c[nH]cn1)[C@@H](C)O)C(C)C)C(C)C)C(=O)N[C@@H](C)C(=O)N[C@@H](CC(N)=O)C(N)=O) [Peptide 1]
6 | 33.1 | 61.4 | H[Aib]HGS[αMeF]TSDVSK[αMeF]LDSK([AEEA-AEEA-γGlu-C18 diacid])AARD[αMeF]VE[Aib]IANT-NH2 (N-terminus assumed; SMILES CC[C@H](C)[C@H](NC(=O)C(C)(C)NC(=O)[C@H](CCC(=O)O)NC(=O)[C@@H](NC(=O)[C@](C)(Cc1ccccc1)NC(=O)[C@H](CC(=O)O)NC(=O)[C@H](CCCNC(=N)N)NC(=O)[C@H](C)NC(=O)[C@H](C)NC(=O)[C@H](CCCCNC(=O)COCCOCCNC(=O)COCCOCCNC(=O)CC[C@H](NC(=O)CCCCCCCCCCCCCCCCC(=O)O)C(=O)O)NC(=O)[C@H](CO)NC(=O)[C@H](CC(=O)O)NC(=O)[C@H](CC(C)C)NC(=O)[C@](C)(Cc1ccccc1)NC(=O)[C@H](CCCCN)NC(=O)[C@H](CO)NC(=O)[C@@H](NC(=O)[C@H](CC(=O)O)NC(=O)[C@H](CO)NC(=O)[C@@H](NC(=O)[C@](C)(Cc1ccccc1)NC(=O)[C@H](CO)NC(=O)CNC(=O)[C@H](Cc1c[nH]cn1)NC(=O)C(C)(C)NC(=O)[C@@H](N)Cc1c[nH]cn1)[C@@H](C)O)C(C)C)C(C)C)C(=O)N[C@@H](C)C(=O)N[C@@H](CC(N)=O)C(=O)N[C@H](C(N)=O)[C@@H](C)O) [Peptide 15]
7 | 0.949 | 34.3 | H[αMeS]QGS[αMeF]TSDVSKILDSK([PEG2′-PEG2′-γGlu-γGlu-Myristoyl])AAQD[αMeF]VQ[Aib]IINT-NH2 [Peptide 132]
8 | 45 | 135 | H[Aib]HGS[αMeF]TSDVSK[αMeF]LDSK([AEEA-AEEA-γGlu-C18 diacid])AARD[αMeF]VESIANT-NH2 (N-terminus assumed; SMILES CC[C@H](C)[C@H](NC(=O)[C@H](CO)NC(=O)[C@H](CCC(=O)O)NC(=O)[C@@H](NC(=O)[C@](C)(Cc1ccccc1)NC(=O)[C@H](CC(=O)O)NC(=O)[C@H](CCCNC(=N)N)NC(=O)[C@H](C)NC(=O)[C@H](C)NC(=O)[C@H](CCCCNC(=O)COCCOCCNC(=O)COCCOCCNC(=O)CC[C@H](NC(=O)CCCCCCCCCCCCCCCCC(=O)O)C(=O)O)NC(=O)[C@H](CO)NC(=O)[C@H](CC(=O)O)NC(=O)[C@H](CC(C)C)NC(=O)[C@](C)(Cc1ccccc1)NC(=O)[C@H](CCCCN)NC(=O)[C@H](CO)NC(=O)[C@@H](NC(=O)[C@H](CC(=O)O)NC(=O)[C@H](CO)NC(=O)[C@@H](NC(=O)[C@](C)(Cc1ccccc1)NC(=O)[C@H](CO)NC(=O)CNC(=O)[C@H](Cc1c[nH]cn1)NC(=O)C(C)(C)NC(=O)[C@@H](N)Cc1c[nH]cn1)[C@@H](C)O)C(C)C)C(C)C)C(=O)N[C@@H](C)C(=O)N[C@@H](CC(N)=O)C(=O)N[C@H](C(N)=O)[C@@H](C)O) [Peptide 17]
9 | 0.511 | 17.8 | H[αMeS]QGS[αMeF]TSDVSKILDSK([PEG2′-PEG2′-γGlu-γGlu-Palmitoyl])AAQD[αMeF]VQ[Aib]IINT-NH2 [Peptide 131]
10 | 1.06 | 30 | H[αMeS]QGS[αMeF]TSDVSKILDSK([PEG2′-PEG2′-γGlu-Stearoyl])AAQD[αMeF]VQ[Aib]IINT-NH2 [Peptide 133]
11 | 0.462 | 4.1 | H[Aib]QGS[αMeF]TSDVSKILDSK([(PEG)2-(PEG)2-γGlu-Myristoyl])AAQD[αMeF]VQ[Aib]IINT-NH2 [Peptide 129]
